Article PMC5389416 (Journal of molecular biology, 2017)

Tests used:
Assay in all cases: HDX-MS
[1] = biological target: T1, Murine N-terminal hexahistidine-p50(39-350) (mouse, UniProt P25799 39-350)
T1 sequence (looked up): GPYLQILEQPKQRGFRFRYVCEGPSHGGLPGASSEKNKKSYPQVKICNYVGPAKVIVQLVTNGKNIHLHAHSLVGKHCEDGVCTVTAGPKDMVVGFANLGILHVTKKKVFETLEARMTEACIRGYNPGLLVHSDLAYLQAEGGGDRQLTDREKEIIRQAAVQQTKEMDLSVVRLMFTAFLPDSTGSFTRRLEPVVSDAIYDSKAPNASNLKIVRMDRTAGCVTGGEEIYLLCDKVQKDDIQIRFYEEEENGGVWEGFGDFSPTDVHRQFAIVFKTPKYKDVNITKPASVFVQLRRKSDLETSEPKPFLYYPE

[2] = biological target: Murine RelA(19-321) (mouse, UniProt Q04207 19-321)
Sequence of Murine RelA(19-321) (Q04207 19-321): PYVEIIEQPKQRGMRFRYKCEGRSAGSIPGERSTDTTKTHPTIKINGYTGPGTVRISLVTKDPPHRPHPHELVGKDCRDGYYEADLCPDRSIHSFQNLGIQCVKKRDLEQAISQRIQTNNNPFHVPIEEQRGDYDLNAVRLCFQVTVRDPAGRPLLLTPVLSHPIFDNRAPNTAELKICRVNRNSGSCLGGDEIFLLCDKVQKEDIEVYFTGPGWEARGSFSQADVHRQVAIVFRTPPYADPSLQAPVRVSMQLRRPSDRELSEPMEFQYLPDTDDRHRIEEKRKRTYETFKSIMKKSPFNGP

[3] = biological target: Murine dimerization domain p50(248-350)/RelA(190-321) (mouse, UniProt P25799 248-350; Q04207 190-321)
Sequence of Murine dimerization domain p50(248-350)/RelA(190-321) (Q04207 190-321, one chain of several): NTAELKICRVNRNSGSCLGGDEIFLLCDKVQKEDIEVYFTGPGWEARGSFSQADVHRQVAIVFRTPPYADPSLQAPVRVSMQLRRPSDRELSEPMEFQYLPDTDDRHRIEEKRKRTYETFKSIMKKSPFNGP

binding result [1]: binds | binding result [2]: binds | binding result [3]: binds
B1: Homo sapiens IκBα(67-287) (domain or fragment, human, UniProt P25963 67-287, looked up)
chain: KQQLTEDGDSFLHLAIIHEEKALTMEVIRQVKGDLAFLNFQNNLQQTPLHLAVITNQPEIAEALLGAGCDPELRDFRGNTPLHLACEQGCLASVGVLTQSCTTPHLHSILKATNYNGHTCLHLASIHGYLGIVELLVSLGADVNAQEPCNGRTALHLAVDLQNPDLVSLLLKCGADVNRVTYQGYSPYQLTWGRPSTRIQQQLGQLTLENLQMLPESEDEE
